Experimental data taken from patent US20230265123A1, “PEPTIDES AND FORMULATIONS FOR CANCER TREATMENT” (Peptinovo Biopharma, Inc., priority 2020, published 2023).
Square brackets hold non-standard residues; d marks the D form. Ends that are not written are not given here. Aib = CC(C)(N)C(=O)O

Molecular target: T1, human SR-BI (Homo sapiens, UniProt Q8WTV0)
T1 construct: expressed in transfected cells; host or cells: BHK(SR-BI) cells obtained from the NIH, GeneSwitch System (Invitrogen), induced with 10 nM mifepristone
T1 sequence (Q8WTV0 1-509 isoform Q8WTV0-2): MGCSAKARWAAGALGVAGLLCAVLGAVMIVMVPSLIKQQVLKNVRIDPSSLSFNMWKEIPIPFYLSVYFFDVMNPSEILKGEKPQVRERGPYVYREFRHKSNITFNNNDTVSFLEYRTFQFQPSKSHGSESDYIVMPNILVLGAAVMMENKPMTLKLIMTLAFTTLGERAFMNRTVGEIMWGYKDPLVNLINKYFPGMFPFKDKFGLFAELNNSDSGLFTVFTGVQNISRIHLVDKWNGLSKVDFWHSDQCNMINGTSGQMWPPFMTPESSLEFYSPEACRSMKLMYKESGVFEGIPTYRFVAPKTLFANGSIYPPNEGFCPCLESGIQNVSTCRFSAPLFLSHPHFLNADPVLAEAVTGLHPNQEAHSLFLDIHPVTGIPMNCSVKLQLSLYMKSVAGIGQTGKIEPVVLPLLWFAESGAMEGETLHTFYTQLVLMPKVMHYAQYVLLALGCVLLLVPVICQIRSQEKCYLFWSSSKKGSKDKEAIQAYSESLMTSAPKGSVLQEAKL
Experiment: DiI uptake from DiI-labeled PALM by BHK(SR-BI) cells, uninduced or mifepristone-induced (SR-BI selectivity)
Assay type: cell-based
Settings: for Induced Uptake: BHK(SR-BI) cells induced with 10 nM mifepristone; for Induced Uptake / Basal Uptake: DiI-labeled PALM 32 μg peptide/ml or DiI-labeled HDL 19 μg protein/ml, 4 hours, ± SEM (n = 4); for SR-BI Dependent Uptake: Increase over basal uptake; for Basal Uptake: uninduced BHK(SR-BI) cells
Procedure: The procedure essentially followed that described in Example 5. A 40 μl aliquot of 10 mM or peptide was combined with 56 μl of 20 mM POPC, 24 μl 20 mM SM(egg) and 16 μl 2.5 mM DiI in a small glass vial. The peptide and lipid stock solutions were prepared in 80% TBA/20% water. The DiI stock was prepared in 92% TBA/8% water. The solution was lyophilized, and the resultant cake was rehydrated by addition of 0.2 ml of Dulbeco's phosphate buffered saline. The solution was briefly swirled, water bath sonicated (for approx. 15 sec.) and placed in a 50° C. heating block for 20 minutes.
SR-BI interaction studies are done with BHK(SR-BI) cells obtained from the NIH. The cells were stably transfected with an inducible human SR-BI gene by means of the GeneSwitch™ System (Invitrogen). The cells were plated (96-well plate) (8000 cells/well) in growth medium (Dulbeco's modified Eagle medium containing 10% fetal bovine serum) containing 200 ug/ml each of zeocin and hygromycin. After 24 hours incubation, the growth medium was removed and replaced with 0.2% bovine serum albumin in Dulbeco's modified Eagle medium. The medium of cells to be induced for SR-BI expression also contained 10 nM mifepristone, added from a DMSO stock solution. DMSO alone was added to the medium of uninduced cells. The induction medium was removed after 24 hours incubation and replaced with medium containing DiI-labeled PALM (32 μg peptide/ml) or DiI-labeled HDL (19 μg protein/ml) (Kalen Biomedical, Montgomery Village, Md.). The test media were prepared by diluting an aliquot of Di-I-labeled PALM (Example 6) or the DiI-labeled HDL in 0.2% bovine serum albumin in Dulbeco's modified Eagle medium. The solutions were passed through 0.2 μm pore size, polyethersulfone, sterilization filters before use. The cells were incubated in test media for 4 hours. Next, the cells were washed 3 times with 0.1% albumin in Dulbeco's phosphate buffered saline (with calcium and magnesium). The last wash was replaced with 200 ul/well of t-butanol/water (95%/5%). The covered plate was left to stand at room temperature for 30 min with occasional shaking. The fluorescence in each well was detected at 520 nm excitation and 580 nm emission with a 550 nm cutoff filter on a […] Gemini fluorescence plate reader, the results are shown in Table 6 and FIG. 7.

Substance | Induced Uptake | SR-BI Dependent Uptake | Basal Uptake
DVFQKLVELFNQLLEKWKQV [SEQ ID NO: 2, amphiphilic peptide used to form PALM] | 12 ± 2 (DiI in cells)/(Total DiI added) × 10^−3 | 35% | 9 ± 2 (DiI in cells)/(Total DiI added) × 10^−3
DVFQKL{Aib}ELFKELLEKWKQV (DVFQKL[Aib]ELFKELLEKWKQV) [SEQ ID NO: 8, amphiphilic peptide used to form PALM] | 20 ± 9 (DiI in cells)/(Total DiI added) × 10^−3 | 14% | 17 ± 8 (DiI in cells)/(Total DiI added) × 10^−3
DVFQKL{Aib}ELFNQLLEKWKQV (DVFQKL[Aib]ELFNQLLEKWKQV) [SEQ ID NO: 1, amphiphilic alpha-helical peptide used to form PALM] | 10 ± 1 (DiI in cells)/(Total DiI added) × 10^−3 | 53% | 6 ± 1 (DiI in cells)/(Total DiI added) × 10^−3
DVFQKL{Aib}ELFNQL{Aib}EKFKQV (DVFQKL[Aib]ELFNQL[Aib]EKFKQV) [SEQ ID NO: 6, amphiphilic peptide used to form PALM] | 27 ± 3 (DiI in cells)/(Total DiI added) × 10^−3 | 82% | 15 ± 1 (DiI in cells)/(Total DiI added) × 10^−3
DVFQKL{Aib}ELFNQL{Aib}EKWKQV (DVFQKL[Aib]ELFNQL[Aib]EKWKQV) [SEQ ID NO: 5, amphiphilic peptide used to form PALM] | 16 ± 2 (DiI in cells)/(Total DiI added) × 10^−3 | 104% | 8 ± 1 (DiI in cells)/(Total DiI added) × 10^−3
DVFQKL{Aib}ELFQNL{Aib}EKWKQV (DVFQKL[Aib]ELFQNL[Aib]EKWKQV) [SEQ ID NO: 10, amphiphilic peptide used to form PALM] | 16 ± 2 (DiI in cells)/(Total DiI added) × 10^−3 | 78% | 9 ± 1 (DiI in cells)/(Total DiI added) × 10^−3
DVFQKL{Aib}ELFQQL{Aib}EKWKQV (DVFQKL[Aib]ELFQQL[Aib]EKWKQV) [SEQ ID NO: 9, amphiphilic peptide used to form PALM] | 11 ± 2 (DiI in cells)/(Total DiI added) × 10^−3 | 72% | 6 ± 1 (DiI in cells)/(Total DiI added) × 10^−3
DV{Aib}QKFLELFNQLLEKWKQV (DV[Aib]QKFLELFNQLLEKWKQV) [SEQ ID NO: 4, amphiphilic peptide used to form PALM] | 10 ± 1 (DiI in cells)/(Total DiI added) × 10^−3 | 66% | 6 ± 1 (DiI in cells)/(Total DiI added) × 10^−3
DV{Aib}QKLFELFNQLLEKWKQV (DV[Aib]QKLFELFNQLLEKWKQV) [SEQ ID NO: 3, amphiphilic peptide used to form PALM] | 11 ± 2 (DiI in cells)/(Total DiI added) × 10^−3 | 79% | 6 ± 1 (DiI in cells)/(Total DiI added) × 10^−3
D{Aib}FQKL{Aib}ELFNQL{Aib}EKWKQV (D[Aib]FQKL[Aib]ELFNQL[Aib]EKWKQV) [SEQ ID NO: 7, amphiphilic peptide used to form PALM] | 18 ± 2 (DiI in cells)/(Total DiI added) × 10^−3 | 137% | 8 ± 1 (DiI in cells)/(Total DiI added) × 10^−3
PVLDLFRELLNELLEALKQKLK [SEQ ID NO: 11, reference compound] | 5 ± 1 (DiI in cells)/(Total DiI added) × 10^−3 | 55% | 3 ± 1 (DiI in cells)/(Total DiI added) × 10^−3
